Source: patent US20190161517A1 (ENSOL BIOSCIENCES, published 2019)

Biological target: T1, extracellular domain recombinant protein RAGE (11629-H08H, Sino Biological Inc.) (UniProt Q15109 23-342, labeled with RED fluorescent dye NT-647-NHS (sites not given))
T1 construct: extracellular domain; Bought protein; also called Receptor for Advanced Glycation End products
Assay: MST (Microscale Thermophoresis), NT-647-labeled RAGE extracellular domain, peptide titrated 50 uM to 1.52 nM, mean of three runs
Experimental: Specifically, the binding capacity of the peptide of Example 1 or 2 to RAGE was measured using MST (Microscale Thermophoresis).
Using a kit {Monolith NT™ Protein Labeling Kit RED-NHS (L001, NanoTemper Technologies)}, an extracellular domain recombinant protein RAGE (11629-H08H, Sino Biological Inc.) was bound to a RED fluorescent dye NT-647-NHS and then purified. Thereafter, a RAGE solution in which the concentration of the RED fluorescent dye NT-647-NHS labeled RAGE in an MST buffer (50 mM Tris-HCl pH 7.4, 150 mM NaCl, 10 mM MgCl₂, 0.05% Tween-20) solution was 20 μM was prepared. Also, a peptide solution was prepared in a 16-step dilution series, in which dilution was repeated with the MST buffer until the concentration of the peptide of Example 1 or Example 2 became 1.52 nM starting from 50 μM. Thereafter, the RAGE solution and the peptide solution were mixed in amounts of 100 μl each, injected into a capillary tube and then placed in the order of concentration in a Monolith NT. 115 tray (G009, NanoTemper technologies). The software was operated in accordance with the Monolith NT. 115 operating method. The same procedure was repeated three times, and the mean value of Kd (dissociation constant) was obtained.

T1 sequence (Q15109 23-342 limits assumed): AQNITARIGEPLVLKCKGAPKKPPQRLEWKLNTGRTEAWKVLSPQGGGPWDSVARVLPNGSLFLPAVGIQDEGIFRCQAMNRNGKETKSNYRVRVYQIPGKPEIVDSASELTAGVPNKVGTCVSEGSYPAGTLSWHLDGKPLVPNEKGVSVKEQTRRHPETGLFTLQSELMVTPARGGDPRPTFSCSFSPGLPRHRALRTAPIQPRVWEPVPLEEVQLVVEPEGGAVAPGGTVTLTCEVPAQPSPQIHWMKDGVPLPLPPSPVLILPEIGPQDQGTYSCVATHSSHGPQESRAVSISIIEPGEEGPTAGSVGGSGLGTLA

B1: peptide of Example 1 (DGEFF) (peptide)
peptide: DGEFF
notes: Synthetic peptide made by AnyGen Co., Ltd
  Kd: 76.9 nM

B2: peptide of Example 2 (DGEF) (peptide)
peptide: DGEF
notes: as for B1
  Kd: 80.9 nM
